Source: paper PMC11479942, “XPD stalled on cross-linked DNA provides insight into damage verification”

T1: XPD wild type (ctXPD) (Chaetomium thermophilum (paper: C. …, UniProt G0RZH0 1-780))
T1 sequence: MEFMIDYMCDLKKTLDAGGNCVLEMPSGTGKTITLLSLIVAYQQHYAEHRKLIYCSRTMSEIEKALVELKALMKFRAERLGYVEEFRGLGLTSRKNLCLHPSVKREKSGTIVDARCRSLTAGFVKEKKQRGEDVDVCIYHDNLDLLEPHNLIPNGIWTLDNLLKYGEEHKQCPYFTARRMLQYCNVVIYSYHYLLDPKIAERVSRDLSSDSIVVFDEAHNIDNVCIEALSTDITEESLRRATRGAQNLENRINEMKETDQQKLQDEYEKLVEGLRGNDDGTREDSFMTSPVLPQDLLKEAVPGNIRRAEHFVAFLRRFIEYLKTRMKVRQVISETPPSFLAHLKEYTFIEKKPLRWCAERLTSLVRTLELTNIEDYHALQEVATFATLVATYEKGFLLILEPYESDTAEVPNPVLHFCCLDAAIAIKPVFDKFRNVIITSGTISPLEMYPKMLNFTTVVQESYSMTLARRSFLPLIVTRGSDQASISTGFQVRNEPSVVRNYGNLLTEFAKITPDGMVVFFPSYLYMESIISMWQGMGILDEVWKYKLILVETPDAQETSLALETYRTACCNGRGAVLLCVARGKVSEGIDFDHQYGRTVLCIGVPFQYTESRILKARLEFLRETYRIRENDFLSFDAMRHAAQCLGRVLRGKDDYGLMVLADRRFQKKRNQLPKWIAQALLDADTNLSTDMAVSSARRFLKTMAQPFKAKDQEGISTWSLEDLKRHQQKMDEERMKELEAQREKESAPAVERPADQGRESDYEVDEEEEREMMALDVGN


Columns and labels:
[1] = target: super-unplugged XPD variant (Chaetomium thermophilum)
[2] = target: T1, XPD wild type (ctXPD); assay: fluorescence anisotropy; 5 mM MgCl2, no nucleotide; Fluorescence anisotropy: 20 mM HEPES pH 7.5, 50 mM KCl, 5 mM MgCl2, 1 mM TCEP, 5 nM DNA, room temperature; cryo-EM: same buffer, 10 uM complex, DNA 1.25:1, 5 mM ATP; settings: protein: recombinant; tags: N-terminal 6xHis, TEV site (pBADM-11); label: 5' Cy3; hairpin with 5' overhang

XPD helicase activity (fluorescence-based, Y-forked DNA 250 nM, XPD–p44 250 nM) with equimolar XPG D924A (250 nM); inhibition by XPG D924A [1]	Molecule	Kd [2]
6 fold	XPG D924A from Chaetomium thermophilum (enzyme)	
	TTTTTTTTTTTTTTTCCCGGCCATGCGAAGCATGGCCGTT (structured_DNA) [5' overhang self-annealing hairpin]	30 nM
